Test: yeast display, Sf9 membrane polyspecificity reagent, FACS + sequencing; frameworks hold sequencing errors
Outline: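 A nanobody's polyreactivity label depends on the gate it was sorted from. Yeast display cells were stained with 10% biotinylated, detergent-solubilized Sf9 membrane reagent for 1 hour at 4 °C, enriched on streptavidin microbeads and sorted by FACS. The low and high (top ~1%) gates were set on anti-HA fluorescence for expression and streptavidin fluorescence for reagent binding.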

Row | Sequence | polyreactivity (PSR sort gate)
1 | QVQLVESGGGLVQAGGSLRLSCASSGSTWWYAMGWYRQAPGKEMELVATISYSGGSTYYADSVKGRFTISRDNAKNSVYLQMNSLKPEDTAVYYCAAKKWTAVRRDFWGQGTQVTVSS | high polyreactivity
2 | QVQLVESGGGLVQAGGSLRLSCAASGITYSGNAMRWYRQAPAKERELVAAISGRGGSTYYADSVKGRFTISRDNAKNTVYLLMNSLKPDDTAVYYCNADVYPYKLALPAGMGYWGQGTQVTVSS | high polyreactivity
3 | QVQLVESGGGLVQAGGSLRLSCAASGSTFSTYAMGSYRQAPGKERELVATISKRGGSTYYADSVKGRFTISRDNAKNTVYLQMNSLKPEDTAVYYCATPRYRYYTIYDYGYWGQGTQVTVSS | high polyreactivity
4 | QVQLVESGGGVVQAGGSLSLSCAASGFNFNYYAMGWYRPAPGKERELVAISRGGTTNYADSVKGRFTISRDNAKNTVYLQMNSLKPEDTAVYYCAVTGTYYGYSWQSRYKYDYWGQGTQVTVSS | high polyreactivity
5 | QVQLVESGGGLVQAGGSLRLSCAASGRTFSAYAMGWYRQAPGKERELVATISRSGGRTYYADSVKGRFTISRDNAKNTVYLQMNSLKPEDTAVYYCNARILRDNQGTYDYWGQGTQVTVSS | high polyreactivity
6 | QVQLVESGGGLVQAGGSLRLSCAASGSTFNSYAMGWYRQAPGKERELVAAISRSGGRTYYADSVKGRFTISRDNAKNNVYLQMSSMKPEDTAVYYCAAVHNANRGYPFEYWGQGTQVTVSS | high polyreactivity
7 | QVQLVESGGGLVQAGGSLRLSCAASGGIFYFNAMGWYRQAPGKERELVASITWSGGNTYYADSVKGRFTISRDNAKNTVYLQMNSLKPEDTAVYYCAADTQEYRPTYDYWGQGTQVTVSS | low polyreactivity
8 | QVHLVESGGGLVQAGGRLRLSCAASGSIFPGYAMGWYRQAPGKERELVAAITFSGGSTYYADSLKGRFTISRDNAKNTVYLQMNSLKPEDTAVYYCAAPGWYGGYPSYYEYGYWGQGTQVTVSS | low polyreactivity
9 | QVQLVESGGGLVQAGGSLRLSCAASGGIFAVYAMGWYRQAPGKERELVAAITWRGGSTRYADSVKGRFTISRDNAKNTVHLQMNSLIPEDTAVYYCAVRSTGYPSRYYYWGQGTQVTVSS | high polyreactivity
10 | QVQLVESGGGLVQAGGSLRLSCAASAFILDWNTIGWYRQAPRKEREFVAAITSRGGDTYYADSVKGRFTISRDNAKNTDYFQMNSMKPEDTAVYYWNKGFKLWPRYGYDYWGLGTQVTVSS | low polyreactivity
11 | QVQLVESGGGLVQAGGSLSLSCAASGFIFRGYAMGWNRQAPGKEREFVAAISRRGGSTYYADSVKGRFTISRDNAKNTVYLQMNSLKPEDTAVYYCAARYSPVWHKYYYWGQGTEVTVSS | high polyreactivity
12 | QVQLVESGGGLVQAGGSLRLSCAASGSNFYVYAMLWYRQAPGKERELVADITTRDGDTYYADSVKGRFTISRDNAKNTVYLQMNSLKPEDTAVYYCAADLNAYPLRAYDYWGQGTQVTVSS | low polyreactivity
13 | QVQLVESGGGLVQAGGSLRLSCAASGRNFNYNAMGWYRQAPGKERELVAVISWSGRTYYADSVKGRFTISRDNAKNTVYLLMNSLKPEDTAVYYCNKRSYRVLYGYWGQGTQVTVSS | high polyreactivity
14 | QVQLVESGGGLVQAGGSLRLSCAASGSTSYVYATGGYRQAPGKERELVAAISGSGGRTYYADSVKGRFTISRDNAKNTVYLQMNSLKPEDTAVYYCNALPRPSYPFDYWGQGTQVTVSS | high polyreactivity
15 | QVQLVESGAGLVQEGGSLRLSCAASGFTFFGYAMGWYRQEPGKERELVATISDTGGSTYADSVKGRFTISRDTAKNTVYLQMNCVKPEDTAVYYCNARSVFYSMDYWGQGTQVTVSS | low polyreactivity
16 | QVQLVESGGGLVQAGGSLRLSCAASGRIFRGYAMGWSRQAPGKERELVAVISYSGTRTYYADSVKGRFTISRDNAKNTVYLQMNSLKPEDTAVYYCNARANGFKDGYWGQGTQVTVSS | high polyreactivity
17 | QVQLVESGGGLVQAGGSLRLSCAASGRTYDQYVMGWYRQAPGKERELVAAITSGGSTYYADSVKGRFTISRDNAKNTVYLLMNSLKPEDTAVYYCNARTSVLHDYWGQGTQVTVSS | low polyreactivity
18 | QVQLVESGGGIVQAGGSLRLSCAASGISFLRYAMGWYRQAPGKEREFVAAINSIVGRTYYADSVKGRFTISRDNAKNTVYLQMNSLIPDDTAVYYCAADSNVRYGMDYWGQGTQVTVSS | low polyreactivity
19 | QVQLVESGGGLVQAGGSLRLSCAASGSILFYYAMGWYRQAPGKERELVAAITWRGGSTYYADSVKGRFTISRDNAKNTVYLQMNSLKPEDTAVYYCAADLYWYRYYGYDYWGQGTQVTVSS | low polyreactivity
20 | QVQLVESGGGLLQAGGSLRLSCAASVSIFSIYAMGWYRQAPGKERELVAAITLGGGSTYYADSVKGRFTISRDNAKNTVYLQMNCLTPEDTAVYYCAASSVYGYSYWGQGTQVTVSS | high polyreactivity
21 | QVQLVESGGGLVQAGGSLRLSCAASGRIFSRYAMGWYRQAPGKERELVAAISRRGGSTYYADSVKGRFTISRDNAKNTVYLQMNSLKPEDTAVYYCAADFSPYYDLATEISDYWGQGTQVTVSS | high polyreactivity
22 | QVQLVESGGGLVQAGGSIRLSCAASGFIFNHYAMGWYRQAPVKEREFVAAISWSGTRTYYADSVKGRFTISRDNAKNTVYLQMNSLKPEDTAVYYCAADVWGPYDYWGQGTQVTVSS | low polyreactivity

Row | Sequence | polyreactivity (PSR sort gate)
23 | QDQHVDSGGGLVQAGGSLRLSCAASGFIFPQNAMGWYRQAPGKERELVAAISKRGGSTYYADSVKGRFTISRDNAKNTVYLQMNSLNPEDTAVYYCAVRYYFYRPGGYDYWGQGTQLTVSS | high polyreactivity
24 | QVQLVESGGGLVQAGGSLRLSCAASGSTFCSYVMGWYRQAPGKERELVAAISSIGGSTYYADSVKGRFTISRDNAKNTVYLQMNSLKPEDTAVYYCAAEPPGSPYEGGYWGQGTQVTVSS | low polyreactivity
25 | QVQLVESGGGLVQAGGSLRLSCAASGRTFRQYAMGWYRQAPGKERELVATISSGGSTYYADSVKGRFTISRDNAKNTVYLLMNSLKPEDTAVYYCAAPYWARKYWRKFGPFDYWGQGTQVTVSS | low polyreactivity
26 | QVQIVKSGGGLVQAGGSLRLSCAASGFIIPEYTMGWYRQAPGKERELVAAISGSGGSTYYADSVKGRFTISRDNAKNTVYLQMNSLIPEDTAVYYCIAPVYTADGYRYGSVRFGYWGQGTQVTVSS | low polyreactivity
27 | QVQLQESVGGLVHAGGSLRLSCAASGSISAVGAMGWYRQAPGKEREFAASVNWGTNTNYADSVKGRFTISRDNAKNTLYLQMNSLKPEDTAVYYCAVLPDWETRHDYWGHGTQVTVSS | low polyreactivity
28 | QVQLVDSGGGLVQAGGSLRLSCAASGSIFDFYAMGWYRQAPGTERELVAAINSGGSTNYADSVKGRFTISRDNAKNTVYLQMNSLTPEDTAVYYCAARHPPYRGGYWGQGTQVTVSS | low polyreactivity
29 | QVQLVESGGGLVQAGGSLRLSCAASGRIFSYNTMGWYRQAPGKERELVAAISCSGGSTSYADSVKGRFTISRDNAKNTVYLQMNSLKPEDTAVYYCATGSKRNPFYRGNYWGQGTQVTVSS | low polyreactivity
30 | QVQVVESGGGLVQAGGSLRLSCAASGRTFGVYAMGWSRQAPGKERELVAVINRSGGSTYYADSVKGRFTISRDNAKYTVYLQMNSLNPEDTAVYSCDKASAYSAYDDHDDYWGHGTQVTVSS | high polyreactivity
31 | QVQLVESGGGLVQAGGSLRLSCAASGITFATNAMGWYRQAPGKERELVAAISWSGGSTYYADSVKGRFTISRDNAKNTVYLQMNSLKPEDTAVYYCATGYSVWYDYWGQGTQVTLSS | low polyreactivity
32 | QVQLVESGGGLVQAGGSLSLSCAASGFTFYGNAIGGNRQAPGKERELVASISTYYADSVKGRFTISRDNAKNTVYLQMNSLKPEDTAVYYCAATHYDRTYYVIYDYWGQGTQVTVSS | low polyreactivity
33 | QVQLVESGGGLVQAGGSLRLICAASGSTLVVNAMGWYRQAPGKERELVAAITSGGSTNYADSVKGRFTISRDNAKNTVYLQMNSLKPEDTAVYYCNAERGRSFWWAYDYWGQGTQVTVSS | low polyreactivity
34 | QVQLVESGGGLVQAGGSLRLSCAASGSIFNINAMGWCRQAPGKDRELVATITSGGTTSYADSVKGRFTISRDNAKNTVYLQMNSLKPEDTAVYYCNAEIYPIVKAGRQHPRRYDYWGQGTQVTVSS | low polyreactivity
35 | QVQLVESGGGLVQAGGSLRLSCAGSGFILGYNAMGWYRQAPGKERELVAVIDSIGDGTYYADSVKGRFTISRDNAKNTVYLQMISLKPEDTAVYYCDVDDYYEMDYWGQGTQVTVSS | low polyreactivity
36 | QVQLVESGGGLVKAGGSLRLSCAASGFIFTQNAMGWYRQAPGKERELVAAISGTGGSTYYADSVKGRFTISRDNAKNTVYLQMNSLKPEDTAVYYCAARRRQEHVGRSSYARYDYWGQGTQVTVSS | high polyreactivity
37 | QVQLVESGGGLVQAGGSLRLSCAASGSTFEWNAMGWYRQAPGKERELVAAISGTGGNTYYADSVKGRFTISRYNAKNTVYLQMNSLKPEDTAVYYCNTDYGEYSSWDLQWWYIPYDYWGQGTQVTVSS | low polyreactivity
38 | QVQLVESGGGLVQAGGSLRLSCAASGLIFAGYAKGWYRQAPGKERELVAAISTSGGRTYYADSVKGRFTISRDNAKNTVYLQMNSLKPEDTAVYYCAAYPVHGKTQELAKEDYWGQGTQVTVSS | high polyreactivity
39 | QVQLVESGGGLVQAGGSLRFSCAASGRTFGINAMGWYRQAPGKERELVAVITFGDGGTYYADSVKGRFTISRDNAKNTVYLQMNSLNPEDTAVYYCSTDYQSTSVWGGHFVINPYDYWGQGTQVTVSS | low polyreactivity
40 | QVQLVESGGGLVQAGGSLRLSCAASGSYTMGWYRQAPGKERELVAAISKSCGSTYYADSVKGRFTISRDNAKNTVYLQMNSLKPDDTAVYYCAAVGWWGTYDYWGQGTQVTVSS | high polyreactivity
41 | QVQLVESGGGLVQAGGSLRLSCAASGIIFVRYAMGWYRQAPGKERELVAAISSGGGSTYYADSVKGRFTISRDNAKNTVYLQMNSLKPEDTAVYYCATVVYPYSPRYDYWGQGTQVTVSS | high polyreactivity
42 | QVQLVESGGGLVQAGGSLRLSCAASGRIFNFYAMGWYRQAPGKERELVASITSGGRTSYADSVKGRFTISRDNAKNTVYLQMNSLKPEDTAVYYCAAVLFGYPRTIGTWYDRYYYWGQGTQVTVSS | high polyreactivity
43 | QVQLVESGGGLVQAGGSLRLSCAASGFIFGTYAMGWYRQAPGKERELVAAISRVGNTSYADSVKGRFTISRDNAKNTVYLQMNSLKPEDTAVYYCAADAPSWYDRQYDYWGQGTQVTVSS | low polyreactivity
